The values that follow come from the nanobody polyreactivity screen of Harvey et al. (2022).

This data set can be described thus: yeast display, Sf9 membrane polyspecificity reagent, FACS + sequencing; frameworks hold sequencing errors. Put shortly:
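Synthetic nanobody libraries on Saccharomyces cerevisiae BJ5465 were galactose-induced for 36–48 hours, stained 1 hour at 4 °C with 10% biotinylated, detergent-solubilized Sf9 membrane reagent and enriched on streptavidin microbeads. FACS then separated cells into low and high (top ~1%) gates by anti-HA (expression) and streptavidin (reagent binding) fluorescence. Genes were colony-PCR amplified, MiSeq 2 × 250 sequenced and CDR-length filtered. A clone's polyreactivity label is that of its gate of origin.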
For “QVQLVESGGGLVQAGGSLRLSCAASGRTFYGYTMGWYRQAPGKERELDAAIRTSGGSTYADSVKGRFTISRDNAKNTVYLQMNSLKPEDTAVYYCAAPRVVYYGTAPAYRYDYWGQGTQVTVSS”, the “polyreactivity (PSR sort gate)” value is listed as “high polyreactivity”.
“QVQLVESGGGLVQAGGSLRLSCAASGYTFGYYAMGWYRQAPGKERELVAAISYSGGTTYYADSVKGRFTISRDNAKNTVYLQMNSLKPEDTAVYYCNKRYWVRTGKVSSYDYWGQGTQVTVSS”: the “polyreactivity (PSR sort gate)” value is given as “high polyreactivity”.
Take “QVQLVESGVGLVQAGGSLRLICAASGSIFGYNAMGWYRQAPGKERELVAAISRSGGRTYYADSVKGSFTISRDNAKNTVYLQMNSLKPEDTAVYYCAASRPGLRTPGQMGYWGQGTQVTVSS”: the “polyreactivity (PSR sort gate)” value was “high polyreactivity”.
As to “QVQLVESGVGLVQAGGSLRLSCAASGRIFAGYAMGWYRQAPGKERELVATISSGGSTYYADSVKGRFTISRDNAKNTVYLQMNSLKPEDTAVYYCAAEYGTRQYSSYYKLFNYWGQGTQVTVSS”, the “polyreactivity (PSR sort gate)” value was “low polyreactivity”.
“QVQLVDSGGGLVQAGGSLRLSCAASGLIFEVYAMGWYRQAQGKERELVAAISWRGGSTDYADSVKGRFTISRDNAKNTVYLQMNSLKPEDTAFYYCAKGYRGRTTAGNLWEFDYWGQGTQVTVSS”: the “polyreactivity (PSR sort gate)” value is on record as “high polyreactivity”.
For the sequence “QVQLVESGGVLVQAGGSLPLSCAASGFTFSRYAMGWYRQAPGKEREFVAGISRSGGSTYYADSVKGRFTNTRDNAMNTVSLQMNSLKPEDTAVYYWAKVYPATEAGDYWGQGTQVTVSS”, the “polyreactivity (PSR sort gate)” value was “high polyreactivity”.
In the case of “QVQLVESGGGLVQAGCSLRLSCAASGNTFGYYAMGWYRQAPGKERELVAAITSSGGRTYYADSVKGRFTISRDNAKNTVYLQMNSLKPEDTAVYYCAAGRVGARYPTYRFYYWGQGTLVTVSS”, the “polyreactivity (PSR sort gate)” value is recorded as “high polyreactivity”.
As to “QVQLVESGGGLVQAGGSLRLSCAASGSIVVDYAMGWYRQAPGKERELVAAITSTGSTTYADSVKGRFTISRDNAKNTVYLQMNSLKPEDTAVYYCAASFRWYGTVRYPYEMYYWGQGTQVTVSS”, the “polyreactivity (PSR sort gate)” value is given as “low polyreactivity”.
“QVQLVESGGGLVQAGGSLRLSCAASGRIFATNAMGWYRQAPGKERELVATITRSAGRTYYADSVKGRFTISRDNAKYTVYLQMNSLKPEDTAVYYCAASYWDTEPGYREYDYWGQGSQVTVSS”: the “polyreactivity (PSR sort gate)” value is reported as “low polyreactivity”.
The result for “QVQHVESGGGLVQAGGSLRLSCAASGSIFVNNAMGWYRQAPGKERELVAAIRRSGGNTYYADSVKGRFTISRDNAKNTVYLQMNSLKPEDTAVYYCNVVRRADSIRAKSRDYWGQGTQVTVSS” reads “high polyreactivity”.
With “QVQLVESGGGLVQAGGSLRLSCAASGLIFYRYAMGWYRQAPGKERELVAAITASGGTTYYADSVKGRFTISRDNAKNTVYLQMNSLKPEDTAVYDCASPYTYWRRIGVDYDYWGQGTQVTVSS”, the “polyreactivity (PSR sort gate)” value is listed as “high polyreactivity”.
Turning to “QVQLVESGGALFQAGGSLRLSCAASGIIFGVYAMGWYRQAPVKERELVASITWGGGSTYYADSVKGRFTISRDNAKNTVYLQMNSLKPEDTAVYYCNKRGYPGYDWGQGTQVTVSS”, the “polyreactivity (PSR sort gate)” value is reported as “low polyreactivity”.
“QVQLVESGGGLVQAGGSLRLSCAASGSIFKYYAMGWYRQAPGKERELVAAISRSGTSTYYADSVKGRFTISRDNAKNTVYLQMNSLKPEDTAVYYCNAVGISQFAKYGWRYDYWGQGTQVTVSS”: the “polyreactivity (PSR sort gate)” value is on record as “high polyreactivity”.
Consider “QVQLVESGGGLVQAGGSLRLSCAASGFTFGGYTMGWYRQAPGKERELVAAISRSGGSTYYADSVKGRFTISRDNAKNTVYLLMNSLKPEDTAVYYCAVTYSVRTYWYDYWGQGTQVTVSS”, for which the “polyreactivity (PSR sort gate)” value was “high polyreactivity”.
On to “QVQLVESGGGLVQAGGSLRLSCAASGIIFDGYAMGWYRQAPGKEREFVAVISSSGGTTYYADSVKGRFTISRDNAKNTVYLQMNSLKPEDTAVYYCATLRYSPGWYTRDDYWGQGTQVTVSS”, for which the “polyreactivity (PSR sort gate)” value was “low polyreactivity”.
With “QVQLVESGGGLVQAGGSLRLTCAASGRIFTVYAMGWYRQAPGKERELVAAIDFSDGTTYYADSVKGRFTISRDNAKNTVYLQMNSLKPEDTAVYYCAAEGGSALDDDYWGQGTQVTVSS”, the “polyreactivity (PSR sort gate)” value was “high polyreactivity”.
Consider “QVQLVESGGGLVQAGGSLRLSCAASGRTFARNAMGWYRQAPGKERELVAAITSGGSTNYADSVKGRFTISRDNAKNTVYLQMNSLIPEDTAVYYCAADGAQYYYGRYYYWGQGTQVTVSS”, for which the “polyreactivity (PSR sort gate)” value was “high polyreactivity”.
“QIQLVESGGGLVQAGGSLRLSCAASGFTFYWYAMGWYRQAPGKEREFVAAIDQSGGSTYYADSVKGRFTISRDNAKNTVYLQMNSLKPEDTAVYYCAARYILWDGDSWTEFDYWGQGTQVTVSS”: the “polyreactivity (PSR sort gate)” value was “low polyreactivity”.
In the case of “QVQLVESGGGLVQAGGSLRLSCAASGSTFLNYVMGWYRQAPGKERELVATINSGDSTTYADSVKGRFTISRDNAKNTVYLQMNSLKPEDTAVYYCNADPYYYSTYWSVKYDYWGQGTQVTVSS”, the “polyreactivity (PSR sort gate)” value is reported as “low polyreactivity”.
The result for “QVQLVESGGGLVQAGGSLRLSCAASGFTFPANDMGWYIQAPGKERELVATITWSGGNTYYADSVKGRFTISRDNAKNTVYLQMNSLKPEDTAVYYCAKDYDPYHEQQSSEHDDYWGQGTQVTVSS” reads “low polyreactivity”; that for “QVQLVESGGGLVQAGGSLRLICAASGFIFGAYTMGWYRQAPGKERELVADISRRGGTTYYADSVKGRFTISRDNAKNTVYLQMISLKPEDTAVYYCAKVANFWYITTLRGYYYWGQGTQVTVSS”, “high polyreactivity”.
Turning to “QVQLVESGGGLVQAGGSLRLSCAASGITFYKNVMGWYRQAPGKERELVAAISSSGGSTYYADSVKGRFTISRDNAKNTVYLQMNSLKPEDTAVYYCAADDPLYTPYEFDYWGQGTQVTVSS”, the “polyreactivity (PSR sort gate)” value is recorded as “low polyreactivity”.
Turning to “QVQLVESGGGLVQAGGSLRLSSAASGRTFRHYALGWSRQAPGKERELVAVISWRGTGTYYADSVKGRFTISRDNAKNTVYLQMTSLKPEDTSVYYCATVWGLGYRMNYWGQGTQVTVSS”, the “polyreactivity (PSR sort gate)” value is “high polyreactivity”.
With “QVQLVESGGGLVQAGGSHRLSCADSGRTFRTYAMGWYRQAPGKERELVAAITTSGSSTYYADSVKGRFTISRDNAKNTVYLQMNSLKPEDTAVYYCAAARSAIVPGYYSWGQGTQVTVSS”, the “polyreactivity (PSR sort gate)” value is “low polyreactivity”.
As to “QVQLVESGGGLVQAGGSLRLSCAASGFTFRDYAMGWYRQAPGKEREFFADITFSGDNTRYADSVKGRFTISRDNAQNTVYLQMNSLKPEDTAVYYCNADRVVGPYDGYDYWGQGTQVTVSS”, the “polyreactivity (PSR sort gate)” value is recorded as “low polyreactivity”.
As to “QVQLVESGGGLVQAGGSLRLSCAASGSIFKGNAMGCYRQAPWKESEMVAAISGGGGSTYYADSVKGRFTISRDNAKNTVYLQMYSLKPEDTAVYYCAARYYESPGDRSGFRYGYWGQGTQVTVSS”, the “polyreactivity (PSR sort gate)” value is recorded as “high polyreactivity”.
The result for “QVQLVESGGGLVQAGGSLRLSCAASGYTFPDYAMGWYRQAPGKERELVADITSAGNTYYADSVKGRFTISRDNAKNTVYLQMNSLKPEDTAVYYCNKDDLWENGISYSSPYRLDHWGQGTQVTVSS” reads “low polyreactivity”; that for “QVQLVESGGGLVQAGGSLRLSCAASGSILVSYAMGWYRQAPGKERELVAAITSGGRTKYADSVKGRFTISRDNAKNTVYLQMNSLKPEDTAVYYCAADDPLSYQFDYWGQGTQVTVSS”, “high polyreactivity”; that for “QVQLVESGGGLVQAGGSLRLSCAASGYIFGRNARGWYRQAQGKERELVAVISSRGSRTYYADSVKGRYTISRDNAKNTVYLQMNSLKPEDTAVYYCNAVMWWDWEYDFYYWGQGNQVTVSS”, “high polyreactivity”.
On to “QVQLVESGGGLVQAGGSLRLSCAASGRIFWINAMGWYRQAPGKERELVAAISSGGGTHYADSVKGRFTISRDNAKNTVYLQMNSLKPEDTAVSYCARRYQRKKPVFPHYQGAYDYWGQGTQVTVSS”, for which the “polyreactivity (PSR sort gate)” value is on record as “low polyreactivity”.
